Results from patent US20250034274A1 (Daiichi Sankyo, published 2025).
One block for each binder: values may come before it.

Key:
[1] = target: T1, biotinylated human TROP2 antigen (human, UniProt P09758 27-274, C-terminal Avi tag sequence biotinylated); assay: ELISA on human TROP2, scFv with or without MMP1 cleavage
T1 construct: extracellular domain; Extracellular domain purified in house
T1 sequence (looked up): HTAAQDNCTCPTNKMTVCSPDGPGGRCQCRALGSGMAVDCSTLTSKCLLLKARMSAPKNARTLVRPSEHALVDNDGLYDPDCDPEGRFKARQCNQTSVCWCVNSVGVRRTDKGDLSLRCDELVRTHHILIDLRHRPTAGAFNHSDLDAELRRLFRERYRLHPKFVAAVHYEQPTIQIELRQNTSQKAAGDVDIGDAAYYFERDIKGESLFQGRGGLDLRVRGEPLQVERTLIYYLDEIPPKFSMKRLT
Method: (§1) The resultant was then added to the plate comprising the human TROP2 antigen immobilized thereon at 50 μl/well. The bound scFv was detected using the HRP-labeled anti-FLAG antibody (Sigma-Aldrich) diluted to 5,000-fold with ELISA buffer.
Thereafter, the antibody with the concentration thereof being adjusted with ELISA buffer was added to the wells.

[2] = target: T1, biotinylated human TROP2 antigen; assay: ELISA, immobilised biotinylated human TROP2, anti-FLAG-HRP, chemiluminescence; without MMP1
Method: (§2) NeutrAvidin (Thermo Fisher Scientific) diluted to 1 μg/ml with PBS was added at 50 μl/well to a 96-well Maxi-sorp plate (Black, Nunc) and immobilized at 4° C. overnight. The plate was washed with PBS containing 0.05% (w/v) Tween-20 (BioRad) (ELISA buffer) and then blocked with Blocker Casein (Thermo Fisher Scientific). The plate was washed with ELISA buffer, the biotinylated human TROP2 antigen (Accession Number: P09758; the extracellular domain was purified by the method known to a person skilled in the art and the C-terminal Avi tag sequence was then biotinylated) diluted to 1 μg/ml with PBS was added at 50 μl/well, and the resultant was then agitated for 30 minutes at room temperature. […] The plate was washed with ELISA buffer, the SuperSignal Pico ELISA chemiluminescent substrate (Thermo Fisher Scientific) was added, and chemiluminescence 10 minutes thereafter was then assayed using a plate reader.
as §1

[3] = target: T1, biotinylated human TROP2 antigen; assay: ELISA, immobilised biotinylated human TROP2, anti-FLAG-HRP, chemiluminescence; scFv pre-incubated with MMP1
Method: as §2, §1

[4] = target: T2, biotinylated human GPRC5D amino terminal peptide (human, K(Biotin) at the C-terminus; C-terminal amide (NH2)); assay: ELISA, immobilised biotinylated human GPRC5D amino terminal peptide, anti-human IgG-HRP, chemiluminescence
T2 construct: The last K carries the biotin and is an added residue as printed; also called human GPRC5D antigen; humanGPRC5D antigen
T2 peptide: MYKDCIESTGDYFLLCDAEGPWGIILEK
Method: NeutrAvidin (Thermo Fisher Scientific) diluted to 1 μg/ml with PBS was added at 50 μl/well to a 96-well Maxi-sorp plate (Black, Nunc) and immobilized at 4° C. overnight. The plate was washed with PBS (ELISA buffer) containing 0.05 (w/v) % Tween-20 (BioRad) and then blocked with Blocker Casein (Thermo Fisher Scientific). The plate was washed with ELISA buffer, the biotinylated human GPRC5D amino terminal peptide ([sequence]-K(Biotin)-NH₂ (Peptide Institute, Inc.)) diluted to 1 μg/ml with PBS was added at 50 μl/well, and the resultant was agitated for 30 minutes at room temperature. The plate was washed with ELISA buffer, the MMP-buffered antibody was added at 50 μl/well, and the resultant was then agitated for 30 minutes at room temperature. The plate was washed with ELISA buffer, 50 μl of the horseradish peroxidase (HRP)-labeled anti-human IgG antibody (Jackson Immuno Research Laboratories) diluted to 2,500-fold with ELISA buffer was added, and the resultant was then agitated for 30 minutes at room temperature. The plate was washed with ELISA buffer, the SuperSignal Pico ELISA chemiluminescent substrate (Thermo Fisher Scientific) was added, and chemiluminescence 10 minutes thereafter was then assayed using a plate reader.

[5] = target: T1, biotinylated human TROP2 antigen; assay: ELISA, immobilised biotinylated human TROP2, anti-human IgG-HRP, chemiluminescence; antibody pre-incubated with MMP1
Method: (§3) NeutrAvidin (Thermo Fisher Scientific) diluted to 1 μg/ml with PBS was added at 50 μl/well to a 96-well Maxi-sorp plate (Black, Nunc) and immobilized at 4° C. overnight. The plate was washed with PBS containing 0.05% (w/v) Tween-20 (BioRad) (ELISA buffer) and then blocked with Blocker Casein (Thermo Fisher Scientific). The plate was washed with ELISA buffer, the biotinylated human TROP2 antigen (Accession Number: P09758; the extracellular domain was purified by the method known to a person skilled in the art and the C-terminal Avi tag sequence was then biotinylated) diluted to 1 μg/ml with PBS was added at 50 μl/well, and the resultant was then agitated for 30 minutes at room temperature. […] The plate was washed with ELISA buffer, 50 μl of the horseradish peroxidase (HRP)-labeled anti-human IgG antibody (Jackson Immuno Research Laboratories) diluted to 2,500-fold with ELISA buffer was added, and the resultant was then agitated for 30 minutes at room temperature. The plate was washed with ELISA buffer, the SuperSignal Pico ELISA chemiluminescent substrate (Thermo Fisher Scientific) was added, and chemiluminescence 10 minutes thereafter was then assayed using a plate reader.

[6] = target: T1, biotinylated human TROP2 antigen; assay: ELISA, immobilised biotinylated human TROP2, anti-human IgG-HRP, chemiluminescence; without MMP1
Method: as §3

[7] = target: T1, biotinylated human TROP2 antigen; assay: ELISA, immobilised biotinylated human TROP2, anti-human IgG-HRP, chemiluminescence
Method: as §3

[8] = target: T1, biotinylated human TROP2 antigen; assay: ELISA, immobilised biotinylated human TROP2, anti-human IgG-HRP, chemiluminescence; antibody pre-incubated with uPA
Method: as §3

[9] = target: T1, biotinylated human TROP2 antigen; assay: ELISA on human TROP2, antibody with or without uPA cleavage
Method: as §3

[10] = target: T1, biotinylated human TROP2 antigen; assay: ELISA, immobilised biotinylated human TROP2, anti-human IgG-HRP, chemiluminescence; without uPA
Method: as §3

[11] = target: T1, biotinylated human TROP2 antigen; assay: ELISA on human TROP2, antibody with or without MMP1 cleavage
Method: as §3

[12] = target: T1, biotinylated human TROP2 antigen; assay: ELISA, immobilised biotinylated human TROP2, anti-human IgG-HRP, chemiluminescence; antibody pre-incubated with MMP1; remark: listed apart in the source
Method: as §3

[13] = target: T1, biotinylated human TROP2 antigen; assay: ELISA, immobilised biotinylated human TROP2, anti-human IgG-HRP, chemiluminescence; without MMP1; remark: listed apart in the source
Method: as §3

[14] = target: T1, biotinylated human TROP2 antigen; assay: ELISA, immobilised biotinylated human TROP2, anti-FLAG-HRP, chemiluminescence; scFv pre-incubated with MMP1; remark: listed apart in the source
Method: as §2, §1

[15] = target: T1, biotinylated human TROP2 antigen; assay: as above; remark: listed apart in the source
Method: as §2, §1

[16] = target: T1, biotinylated human TROP2 antigen; assay: ELISA, immobilised biotinylated human TROP2, anti-FLAG-HRP, chemiluminescence; without MMP1; remark: listed apart in the source
Method: as §2, §1

[17] = target: T1, biotinylated human TROP2 antigen; assay: as above; remark: listed apart in the source
Method: as §2, §1

[18] = target: T1, biotinylated human TROP2 antigen; assay: ELISA, immobilised biotinylated human TROP2, anti-FLAG-HRP, chemiluminescence; scFv pre-incubated with MMP1; remark: listed apart in the source
Method: as §2, §1

EC50 ratio of binding (under the condition without the addition of MMP1/under the condition with the addition of MMP1) [1]: 4.3
EC50 (read off the curve) [2]: 10 to 20 nM
EC50 (read off the curve) [3]: ~3 nM
B1: MHT1002 (scFv)
scFv: AMGYLALKHPWPGLAENSGSGGGGSVLVPMAMMASGGSDVNSDIQMTQSPSSLSASVGDRVTITCKASQDVSTAVAWYQQKPGKAPKLLIYSASYRYTGVPSRFSGSGSGTDFTLTISSLQPEDFAVYYCQQHYITPLTFGQGTKLEIKRGGGGSGGGGSGGGGSQVQLVQSGAEVKKPGASVKVSCKASGYTFTTAGMQWVRQAPGQGLEWMGWINTHSGVPKYAEDFKGRVTISADTSTSTAYLQLSSLKSEDTAVYYCARSGFGSSYWYFDVWGQGTLVTVSSGAPSGDYKDDDDKGAAAHHHHHH
notes: Mimotope peptide, MMP cleavable linker, HT1-11 scFv, FLAG tag, His tag; also called positive clone MHT1002

EC50 (read off the curve) [4]: ~0.3 nM
B2: anti-GPRC5D antibody C3022 (antibody, V domains shown)
VH: QVQLVQSGAEVKKPGASVKVSCKASGYTFTGYYMHWVRQAPGQGLEWMGRINPNSGGTNYAQKFQGRVTMTRDTSISTAYMELSGLRSDDTAVYYCASGSVRHPWGQGTLVTVSS
VL: QPVLTQPPSASGTPGQRVTISCSGSRSNIGGNIVSWYQQFPGTAPRLLTYADNQRPSGVPDRFSGSKSGTSASLAISGLQSEDEADYYCAAWDDSLNGVVFGGGTKLTVLG
notes: Known antibody of WO 2018/147245

EC50 (read off the curve) [5]: ~0.5 nM
EC50 (read off the curve) [6]: ~0.5 nM
EC50 (read off the curve) [7]: ~0.6 nM
B3: anti-TROP2 antibody HT1-11 (antibody)
heavy: not shown
light: DIQMTQSPSSLSASVGDRVTITCKASQDVSTAVAWYQQKPGKAPKLLIYSASYRYTGVPSRFSGSGSGTDFTLTISSLQPEDFAVYYCQQHYITPLTFGQGTKLEIKRTVAAPSVFIFPPSDEQLKSGTASVVCLLNNFYPREAKVQWKVDNALQSGNSQESVTEQDSKDSTYSLSSTLTLSKADYEKHKVYACEVTHQGLSSPVTKSFNRGEC
notes: Known antibody of WO 2015/098099; Entries are called full-length

EC50 (read off the curve) [8]: ~1 nM
EC50 ratio of binding (under the condition without the addition of uPA/under the condition with the addition of uPA) [9]: 83
EC50 (read off the curve) [10]: ~90 nM
B4: anti-TROP2 masked antibody MHT1009 (antibody)
heavy: not shown
light: DIQMTQSPSSLSASVGDRVTITCKASQDVSTAVAWYQQKPGKAPKLLIYSASYRYTGVPSRFSGSGSGTDFTLTISSLQPEDFAVYYCQQHYITPLTFGQGTKLEIKRTVAAPSVFIFPPSDEQLKSGTASVVCLLNNFYPREAKVQWKVDNALQSGNSQESVTEQDSKDSTYSLSSTLTLSKADYEKHKVYACEVTHQGLSSPVTKSFNRGEC
notes: IgG-type

EC50 ratio of binding (under the condition without the addition of MMP1/under the condition with the addition of MMP1) [11]: 104
EC50 (read off the curve) [12]: ~0.3 nM
EC50 (read off the curve) [13]: ~30 nM
B5: anti-TROP2 masked antibody MHT1007 (antibody)
heavy: not shown
light: DIQMTQSPSSLSASVGDRVTITCKASQDVSTAVAWYQQKPGKAPKLLIYSASYRYTGVPSRFSGSGSGTDFTLTISSLQPEDFAVYYCQQHYITPLTFGQGTKLEIKRTVAAPSVFIFPPSDEQLKSGTASVVCLLNNFYPREAKVQWKVDNALQSGNSQESVTEQDSKDSTYSLSSTLTLSKADYEKHKVYACEVTHQGLSSPVTKSFNRGEC
notes: IgG-type; MHT1001 mimotope and MMP cleavable linker fused to the heavy chain

EC50 ratio of binding (under the condition without the addition of MMP1/under the condition with the addition of MMP1) [1]: 7.9
EC50 (read off the curve) [14]: ~8 nM
B6: MHT1001 (scFv)
scFv: AMGYLALKHPWPGLAENSGSGGGGSVLVPMAMMASGGSDVNSQVQLVQSGAEVKKPGASVKVSCKASGYTFTTAGMQWVRQAPGQGLEWMGWINTHSGVPKYAEDFKGRVTISADTSTSTAYLQLSSLKSEDTAVYYCARSGFGSSYWYFDVWGQGTLVTVSSGGGGSGGGGSGGGGSDIQMTQSPSSLSASVGDRVTITCKASQDVSTAVAWYQQKPGKAPKLLIYSASYRYTGVPSRFSGSGSGTDFTLTISSLQPEDFAVYYCQQHYITPLTFGQGTKLEIKRGAPSGDYKDDDDKGAAAHHHHHH
notes: also called positive clone MHT1001

EC50 (read off the curve) [15]: ~4 nM
EC50 (read off the curve) [16]: ~5 nM
B7: HT1-11-scFv-HL (scFv)
scFv: ADVNSQVQLVQSGAEVKKPGASVKVSCKASGYTFTTAGMQWVRQAPGQGLEWMGWINTHSGVPKYAEDFKGRVTISADTSTSTAYLQLSSLKSEDTAVYYCARSGFGSSYWYFDVWGQGTLVTVSSGGGGSGGGGSGGGGSDIQMTQSPSSLSASVGDRVTITCKASQDVSTAVAWYQQKPGKAPKLLIYSASYRYTGVPSRFSGSGSGTDFTLTISSLQPEDFAVYYCQQHYITPLTFGQGTKLEIKRGAPSGDYKDDDDKGAAAHHHHHH
notes: No mimotope fused; expressed in E. coli, purified on Ni Sepharose; also called scFv-type anti-TROP2 antibody

EC50 (read off the curve) [17]: ~3 nM
EC50 (read off the curve) [18]: ~3 nM
B8: HT1-11-scFv-LH (scFv)
scFv: ADVNSDIQMTQSPSSLSASVGDRVTITCKASQDVSTAVAWYQQKPGKAPKLLIYSASYRYTGVPSRFSGSGSGTDFTLTISSLQPEDFAVYYCQQHYITPLTFGQGTKLEIKRGGGGSGGGGSGGGGSQVQLVQSGAEVKKPGASVKVSCKASGYTFTTAGMQWVRQAPGQGLEWMGWINTHSGVPKYAEDFKGRVTISADTSTSTAYLQLSSLKSEDTAVYYCARSGFGSSYWYFDVWGQGTLVTVSSGAPSGDYKDDDDKGAAAHHHHHH
notes: as for B7
